Results: paper PMC7058014

Target: T1, GST-ATML1(30-134) (Arabidopsis thaliana) (UniProt Q8RWU4)
T1 sequence: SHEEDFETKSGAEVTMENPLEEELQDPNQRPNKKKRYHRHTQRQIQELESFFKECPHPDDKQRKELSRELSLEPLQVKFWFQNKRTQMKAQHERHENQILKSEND
Test: EMSA
Conditions: 15 mM Tris pH 7.5, 50 mM NaCl, 0.1 mM DTT, 5% glycerol, 0.1 mM MgCl2, 50 ng/ul carrier DNA, room temperature 30 min; 6% gel in 0.5x TBE at 4 C

binding, binds:
ATGTGAATGAAGCCAAGAATCAGTTAATACTAAAGCTCAAGTGTGCAATATACATCACAATACCTTTGTCCTTGTTTCAGGTCTACTTTTACATCATAGAACTTGCTCCTATAGATAATACAATGCATGGTATTGACGTAAGAACTCTTAGCTTTTCATATTAGTAGCTTATAATGTTCCTTAAATGCGACATTGATATTAAGCTACTACTCAATAACTCAATGGTAACGAATCATAAGTCTGAACTATTCGAAAACAGTAATCCTGAAAAGAAA (double strand) [MIR171A-F1]
ATGTTGATTACCCATATACTTTGCTAGCGGCCGAAATGATCACTTTCATGATTTTTTTTTGCATAGGTTCATAAAACATATATTTACTTTTTTTTAAGGAAATATTAAATAAATGATAGGAACTTAACAAGAGAAGAAATAAATAGGGAGGGAGAATATTTGGAAAGTTGAGCCATATTAATTTCGAAATTCAAATGTATATTGGGAGTGGCACAACCCCACCAACATGCCTTGCTCTCTCTTACAAACCTCATAAATACTAAATTGAAAGCTCGTGGGA (double strand) [MIR171B-F3]
CCTCCTCAAGAAGGAAAGACAGAGGAGGAGACAAAGAAGTATAGGTTCACATTGCATAGCCAGTTTAGTTTTGAAGGATGGATATATGAAAAAAATATGAAGAGAGAGAAGAGAGAAGAAGAGGAGGATTAAAGAGGGTGAGGCCAGCTTTTGTGCTTTGGTAGTAGATGAGGTTTAAATGCTCCATACCTTCCATTTCCTTCTCTCTTACCCTAATTTAATTCTTCCTCTCCTTTATAACTCCCCACAGACATTCTCACT (double strand) [MIR171A-F3]
CCTGATAATTTGATATCATCGGTTGTAAAAACGAATATGTAATGTTACATTACTAATGTATAAAGTATAAACAAATATTATTATCTTTTGAAAAAAGTTTTTCATAGAAACAATTCAAATTTAATAAACCAACCTCCTTTTTGGTATGGGGTTGTTGGTCTAATTTAATGCTTGTCTCTTGCTTGCCTCTCTTCTTCAACCATCTTCGTATTTATATCTTCTTCTTCACTATGCATACTCATAAACTTTGCTACTGGCCGCAT (double strand) [MIR171B-F4]
GGGTTCATAACTTGCTTGAGGTTTTGTAAAAAGCAGAGAAAGAGAGAGAGAGGGGCCTAGAAAGAAAGAAAGAAAAGCAGTAAGAGACTATTAAATGTTGCAGGCAGGTCCAGCCAGTGTCCCCTCTCTTCTGCGAGATTCCCTCAAAATTTATTACAAAGCATCTTCATCGATGTTCTTTTAATTCTTCCTCAAAATCTTTTCTCTTTTTTTGGTTATATATATTTGAATTTTGATTTATGAACCTCCTCAAGAAGGAAA (double strand) [MIR171A-F2]
